Data taken from patent US20240109962A1 (SPARX BIOSCIENCE, published 2024).
Read-outs that look alike come from different tables or passages of the source.

Legend:
[1] = molecular target: LILRB2 antigen of the ELISA of Table 5 (format not specified) (UniProt Q8N423 22-460, limits assumed); test: ELISA, antibody titration
[2] = molecular target: T1, human LILRB1 expressed on 293T cells (human, UniProt Q8NHL6 24-650); test: flow cytometry on 293T transfectants, MFI
T1 construct: whole, on cells
Protocol: (§1) The cells were then immobilized with glutaraldehyde in the presence of 5% defatted milk at room temperature for 2 hours. An anti-LILRB2 antibody (5 μg/ml) was added to each well and incubated at room temperature for 1 hours. An Alex Flour®-labelled goat anti-mouse secondary antibody (1:2,000 dilution) was then added into each well and incubated at room temperature for 30′. The cells were washed twice with PBS after the staining. Fluorescence intensities (MFI) were measured.

[3] = molecular target: T2, human LILRB3 expressed on 293T cells (human, UniProt O75022 24-631); test: flow cytometry on 293T transfectants, MFI
T2 construct: whole, on cells
Protocol: as §1

[4] = molecular target: T3, LILRB3-His; test: ELISA on recombinant His-tagged protein, OD450
T3 construct: also called His-tagged LILRB3; recombinant LILRB3 protein

[5] = molecular target: T4, His-tagged human LILRB2 polypeptide (human, UniProt Q8N423 22-460); test: SPR, antibody on CM5 chip, His-LILRB2 analyte, 1:1 model
T4 construct: SPR analyte; also called His-tagged human LILBR2 polypeptide; not shown: His tag
Protocol: Surface plasmon resonance (SPR) was used to examine binding activities of exemplary anti-LILBR2 antibodies disclosed herein. Briefly, the anti-LILBR2 antibody was diluted in a coating buffer to a concentration of 30 μg/ml, loaded onto CM5 chips at 10 μl/min to allow coating of the antibody on the surface of the CM5 chip. […] Binding affinity was measured based on the 1:1 binding model.

[6] = molecular target: T2, human LILRB3 expressed on 293T cells; test: cell ELISA on fixed 293T transfectants, OD490
Protocol: The cells were then immobilized with glutaraldehyde in the presence of 5% defatted milk at room temperature for 2 hours. An anti-LILRB2 antibody (2 μg/ml) was added to each well and incubated at room temperature for 2 hours. An HRP-labelled goat anti-mouse secondary antibody was then added into each well and incubated at room temperature for one hour. An HRP substrate, o-phenylenediamine dihydrochloride (OPD) was then added to each well. The plate was incubated at room temperature for 15 min to allow color development and OD₄₉₀ values were determined.

[7] = molecular target: T5, human LILRB2 expressed on cells (293T-LILRB2, CHO-K1-LILRB2) (human, UniProt Q8N423 22-597); test: flow cytometry, 293T-LILRB2 cells
T5 construct: whole, on cells; the cell line is named under assay; also called HEK293T-LILRB2
Excerpt: The fluorescent signals were detected by flow cytometry.

[8] = molecular target: T6, recombinant human LILRB2 protein (human, UniProt Q8N423 22-460, limits assumed); test: ELISA, coated recombinant human LILRB2; design: unit not given here
T6 construct: also called recombinant LILRB2 protein
Protocol: This affinity maturation library was screened against human LILRB2 to identify antibodies having high binding affinity to LILRB2. Briefly, an ELISA plate was coated with 0.1 ug/well recombinant human LILRB2 protein. Serial diluted maturated h#2E1 antibodies were incubated in the LILRB2 coated plate for 2 hrs. The plate was washed and a secondary HRP-labeled anti-human IgG was then added to each well. After being incubated at room temperature for 1 hour, the colorimetric ELISA signals were developed by adding the TMB substrate and reaction was stopped by 1M H3PO4. Table 7 below provides binding activities of exemplary matured antibodies to recombinant LILRB2 protein.

[9] = molecular target: T5, human LILRB2 expressed on cells …; test: flow cytometry, His-HLA-A2 tetramer (competitor) bound to 293T-LILRB2 cells, relative to no antibody; design: concentration or dose not given beside the values
Protocol: Serial diluted h#2E1 antibodies were then added to the mixture and incubated at room temperature for another 45 minutes. […]

[10] = molecular target: T5, human LILRB2 expressed on cells …; test: flow cytometry, blockade of His-tagged HLA-G tetramer binding to 293T-LILRB2 cells; fit table under the graph
Protocol: (§2) Serial diluted humanized LILRB2 antibodies were then added to the mixture and incubated at room temperature for another 45 minutes. The binding of HLA-G/LILRB2 was detected afterwards using a secondary PE-labeled anti-His tag antibody via flow cytometry.

[11] = molecular target: T5, human LILRB2 expressed on cells …; test: as above; remark: listed apart in the source
Protocol: as §2

T1 sequence (Q8NHL6 24-650): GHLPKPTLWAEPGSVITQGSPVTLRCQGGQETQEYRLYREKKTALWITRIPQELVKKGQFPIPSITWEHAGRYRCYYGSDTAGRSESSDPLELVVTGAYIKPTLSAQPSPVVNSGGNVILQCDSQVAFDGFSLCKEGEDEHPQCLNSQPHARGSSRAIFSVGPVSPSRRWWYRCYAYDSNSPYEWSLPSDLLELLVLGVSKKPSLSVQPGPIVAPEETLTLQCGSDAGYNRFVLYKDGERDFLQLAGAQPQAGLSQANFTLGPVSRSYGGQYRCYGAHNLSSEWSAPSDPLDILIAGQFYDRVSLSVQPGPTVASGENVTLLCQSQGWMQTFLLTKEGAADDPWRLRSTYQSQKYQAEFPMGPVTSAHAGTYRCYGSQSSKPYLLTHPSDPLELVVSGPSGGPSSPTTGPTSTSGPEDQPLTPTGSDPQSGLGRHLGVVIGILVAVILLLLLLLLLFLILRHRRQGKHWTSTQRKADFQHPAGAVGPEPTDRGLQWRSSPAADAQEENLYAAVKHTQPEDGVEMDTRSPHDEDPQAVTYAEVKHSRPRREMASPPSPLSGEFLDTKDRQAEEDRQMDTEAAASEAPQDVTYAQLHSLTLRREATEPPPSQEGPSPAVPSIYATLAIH
T6 sequence (Q8N423 22-460 limits assumed): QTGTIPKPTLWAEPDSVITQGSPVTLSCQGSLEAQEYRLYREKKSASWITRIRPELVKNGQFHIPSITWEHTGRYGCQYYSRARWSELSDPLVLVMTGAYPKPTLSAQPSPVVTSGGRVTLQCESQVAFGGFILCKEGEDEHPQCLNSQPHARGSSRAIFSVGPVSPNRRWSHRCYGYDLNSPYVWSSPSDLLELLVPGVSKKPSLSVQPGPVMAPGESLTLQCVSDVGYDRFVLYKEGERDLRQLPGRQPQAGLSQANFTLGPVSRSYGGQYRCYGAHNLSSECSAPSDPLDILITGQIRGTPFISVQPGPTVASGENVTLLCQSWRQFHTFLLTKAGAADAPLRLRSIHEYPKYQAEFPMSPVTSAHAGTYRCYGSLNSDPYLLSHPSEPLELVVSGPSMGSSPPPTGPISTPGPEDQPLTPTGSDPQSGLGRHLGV
LILRB2 antigen of the ELISA of Table 5 (format not specified), sequence (Q8N423 22-460 limits assumed): as above
T4 sequence (Q8N423 22-460 limits assumed): as above
T5 sequence (Q8N423 22-597): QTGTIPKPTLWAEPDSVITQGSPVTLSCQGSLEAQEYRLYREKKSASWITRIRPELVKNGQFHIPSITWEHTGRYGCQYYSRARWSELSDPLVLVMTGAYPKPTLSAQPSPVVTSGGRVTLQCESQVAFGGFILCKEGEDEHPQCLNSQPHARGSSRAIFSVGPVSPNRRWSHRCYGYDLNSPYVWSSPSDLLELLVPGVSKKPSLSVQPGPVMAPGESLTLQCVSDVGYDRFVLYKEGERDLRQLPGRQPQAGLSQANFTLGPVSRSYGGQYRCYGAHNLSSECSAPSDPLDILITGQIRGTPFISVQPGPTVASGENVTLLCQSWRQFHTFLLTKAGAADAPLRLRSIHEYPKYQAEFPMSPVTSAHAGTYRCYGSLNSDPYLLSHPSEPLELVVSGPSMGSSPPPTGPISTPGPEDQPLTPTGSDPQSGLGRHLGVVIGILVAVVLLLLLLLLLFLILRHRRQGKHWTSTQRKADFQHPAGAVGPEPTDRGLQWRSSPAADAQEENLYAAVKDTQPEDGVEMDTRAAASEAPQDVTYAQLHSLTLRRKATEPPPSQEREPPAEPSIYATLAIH

| Binder | Kd [1] [nM] | binding result [2] | binding result [3] | binding result [4] | Bmax [7] | Bmax [8] | % no Ab [9] [%] | other results |
| --- | --- | --- | --- | --- | --- | --- | --- | --- |
| Antibody 2F1 (antibody, V domains shown, Mouse hybridoma mAb purified from ascites) VH: EVKLEESGGGLVQPGGSMKLSCAASGFTFSDAWMDWVRQSPKKGLEWVAEIRSKSNNHTTYYAESVKGRFTISRDDSKSSVYLQMNSLRAEDTGIYYCTRDWLTYWGQGTLVTVSA VL: DIVLTQSPASLAVSLGQRATISCRASKSVSTSGYSYMNWYQQKPGQPPKLLIYLASNLESGVPARFSGSGSGTDFTLNIHPVEEEDAATYYCQHSRELPLTFGAGTKLELK | 2.18 | no binding (tested: 5 µg/ml) | no binding (tested: 5 µg/ml) | – | – | – | – | – |
| Antibody 14C11 (antibody, V domains shown, Mouse hybridoma mAb purified from ascites) VH: EVQLQQSGPDLVKPGASVKISCKASGYIFTDFNMHWVKQSHGKSLEWIGYIYPFNGGTGYNQKFENKATLTVDNSSSTAYMEVRSLTSEDSAVYYCARRGGRGHFDYWGQGTTLTVSS VL: DIQMTQSPASLSASVGETVTVTCRASGNIHNYLAWYQQKQGKSPQLLVYNAKTLADGVPSRFSGSGSGTQFSLKINSLQPEDFGSYYCQHFWNTPFTFGSGTKLEIK | 0.804 | no binding (tested: 5 µg/ml) | no binding (tested: 5 µg/ml) | no binding | – | – | – | Kd [5]: 0.962 nM; koff [5]: 0.00025 s⁻¹; kon [5]: 260000 M⁻¹ s⁻¹ |
| Antibody 7G4 (antibody, V domains shown, Mouse hybridoma mAb purified from ascites) VH: QVQLKQSGPGLVQPSQSLSITCTVSGFSLATYGVHWVRQSPGKGLEWLGVMWRDGSTDYNAVFMSRLSITKDDSKSQVFFKMNSLQADDTAIYYCAKNPYLYGSSHYYAMDYWGQGTSVTVSS VL: DIVMTQSPSSLSVSAGEKVTMSCKSSQSLLNSENQKNYLAWYQQKPGQPPKLLIYGASTRESGVPDRFTGSGSGTDFTLTISSVQAEDLAVYYCQNDHIYPFTFGSGTKLEIK | 1.53 | no binding (tested: 5 µg/ml) | no binding (tested: 5 µg/ml) | – | – | – | – | Kd [5]: 1.57 nM; koff [5]: 0.000677 s⁻¹; kon [5]: 432000 M⁻¹ s⁻¹ |
| Antibody 13C5 (antibody, V domains shown, Mouse hybridoma mAb purified from ascites) VH: QVQLKQSGPGLVQPSQSLSITCTVSGFSLTTFGVHWVRQSPGKGLEWLGVIWRGGSTDYNAAFMSRLSITKDNSKSQVFFKMNSLQADDTAIYYCAKNPYQYGSSHYYAMDYWGQGTSVTVSS VL: DIVMTQSPSSLSVSAGEKVTMSCKSSQSLLNSGNQKNYLAWYQQKPGQPPKLLIYGASTRESGVPDRFTGSGSGTVFTLTISSVQAEDLAVYYCQNDHILPFTFGSGTKLEIK | 0.314 | no binding (tested: 5 µg/ml) | no binding (tested: 5 µg/ml) | – | – | – | – | – |
| Antibody 10B11 (antibody, V domains shown, Mouse hybridoma mAb purified from ascites) VH: EIQLQQSGPELVKPGASVKVSCKASGNSFTDNNIYWVKQSHGESLEWIGYIDPFNGRTTYNQKFKGKATLTVDKSSSTAFMHLNSLTSGDSAVYYCARGDYFNYWGQGTTLTVSS VL: EIQMTQTTSSLSASLGDRVTISCSASQGINNYLNWFQQKSDGTVKLLIYYTSSLHSGVPSRFSGSGSGTDYSLTISNLEPEDIAIYYCQQYSNLPFTFGGGTELEIK | 0.195 | – | – | no binding | – | – | – | binding result [6]: no binding (tested: 2 µg/ml) |
| Antibody 11D9 (antibody, V domains shown, Mouse hybridoma mAb purified from ascites) VH: EIQLQQSGPELVKPGASVKLSCKASGYAFTTYNMYWVKQSPGKSLEWIGYIDPYNGGATYNLKFKGKATLTVDKSSSAAYMHLNGLTSEDSAVYYCAGGDYFNYWGQGTILTVSS VL: DIQMTQTTSSLSASLGDRVTISCRASQVINNYLNWFQQKPDGTVKLLIYYTSTLHSGVPSRFSGSGSGTDYSLTISNLEPEDFATYYCQQYSTLPYTFGGGTKLEIK | 1.43 | – | – | no binding | – | – | – | binding result [6]: no binding (tested: 2 µg/ml) |
| Antibody 13H5 (antibody, V domains shown, Mouse hybridoma mAb purified from ascites) VH: EIQLQQSGPELVKPGTSVKVSCKASGSSFTDYNMYWVKQSHGKSLDWIGYIDPYNGRTTYNQKFRGKATLTVDKSSSTAFMHLNSLTSEDSAVYYCARGDYFDYWGQGTSLTVSS VL: EIQMTQTTSSLSASLGDRVTISCSASQGISNYLNWFQQKPDGTVKLLIYYTSTLHSGVPSRFSGSGSGTDFSLTISNLDPEDFATYYCQQYSNLPYTFGGGTKLEIK | 1.39 | – | no binding (tested: 5 µg/ml) | no binding | – | – | – | – |
| Antibody 2E1_FC3 (antibody, V domains shown) VH: EVQLVESGGGLVQPGGSLRLSCAVSGYSITSGYYWNWIRQAPGKGLEWVAYISYDGNTNYNPSLKNRFTISRDTSKNTFYLQMNSLRAEDTAVYYCAREESTMITTAWFAYWGQGTLVTVSS VL: DIQMTQSPSSLSASVGDRVTITCRASENIYSNLAWYQQKPGKAPKLLIYGATNLASGVPSRFSGSGSGTDYTLTISSLQPEDFATYYCQHFWDTPYTFGQGTKVEIK | – | – | – | – | 456000 | 1.29 | 52.1 | IC50 [10]: 0.122 nM; Span [10]: 9690 RFU |
| Antibody 2E1_GH6 (antibody, V domains shown) VH: EVQLVESGGGLVQPGGSLRLSCAVSGYSITSGYHWNWIRQAPGKGLEWVAYISYDGNNNYNPSLKNRFTISRDTSKNTFYLQMNSLRAEDTAVYYCAREESTMITTAWFAYWGQGTLVTVSS VL: DIQMTQSPSSLSASVGDRVTITCRASENIYSNLAWYQQKPGKAPKLLIYGATNLASGVPSRFSGSGSGTDYTLTISSLQPEDFATYYCQHFWDTPYTFGQGTKVEIK | – | – | – | – | 678000 | 1.26 | 46.6 | IC50 [11]: 0.596 nM; Span [11]: 5760 RFU |
| Antibody 2E1_GF1 (antibody, V domains shown) VH: EVQLVESGGGLVQPGGSLRLSCAVSGYSITSGYYWNWIRQAPGKGLEWVAYISYDGNNNYNPSLKNRFTISRDTSKNTFYLQMNSLRAEDTAVYYCAREESTMITTAWFAYWGQGTLVTVSS VL: DIQMTQSPSSLSASVGDRVTITCRASEVIYSNLAWYQQKPGKAPKLLIYGATNLASGVPSRFSGSGSGTDYTLTISSLQPEDFATYYCQHFWDTPYTFGQGTKVEIK | – | – | – | – | 706000 | 1.5 | 47.9 | IC50 [11]: 0.331 nM; Span [11]: 6980 RFU |
| Antibody 2E1_FF4 (antibody, V domains shown) VH: EVQLVESGGGLVQPGGSLRLSCAVSGYSITSGYYWNWIRQAPGKGLEWVAYISYDGNNWYNPSLKNRFTISRDTSKNTFYLQMNSLRAEDTAVYYCAREESTMITTAWFAYWGQGTLVTVSS VL: DIQMTQSPSSLSASVGDRVTITCRASENIYSNLAWYQQKPGKAPKLLIYGATNLASGVPSRFSGSGSGTDYTLTISSLQPEDFATYYCQHFWDTPYTFGQGTKVEIK | – | – | – | – | 462000 | 1.59 | 53.3 | IC50 [10]: 0.254 nM; Span [10]: 6670 RFU |
| Antibody 2E1_FD3 (antibody, V domains shown) VH: EVQLVESGGGLVQPGGSLRLSCAVSGYSITSGYYWNWIRQAPGKGLEWVAYISYDGNANYNPSLKNRFTISRDTSKNTFYLQMNSLRAEDTAVYYCAREESTMITTAWFAYWGQGTLVTVSS VL: DIQMTQSPSSLSASVGDRVTITCRASENIYSNLAWYQQKPGKAPKLLIYGATNLASGVPSRFSGSGSGTDYTLTISSLQPEDFATYYCQHFWDTPYTFGQGTKVEIK | – | – | – | – | 460000 | 1.28 | 51 | IC50 [10]: 0.232 nM; Span [10]: 6750 RFU |
